Changes are numbered by the printed parent chain.
B1: Clone 12 (designed binder)
chain: MIPGGLSEAKPATPEIQEIVDKVKPQLEEKTGETYGKLEAVQYKTQVVQLKFPPYVSGTNYYIKVRAGDNKYMHLKVFKSLGWDDKPEWDEDLVLTGYQVDKNKDDELTGF
notes: His-tagged
B2: Clone 16 (designed binder)
chain: MIPGGLSEAKPATPEIQEIVDKVKPQLEEKTGETYGKLEAVQYKTQVVHIQWPPWVEGTNYYIKVRAGDNKYMHLKVFKSLGWTSDNSNFEDLVLTGYQVDKNKDDELTGF
notes: His-tagged
B3: Clone 19 (designed binder)
chain: MIPGGLSEAKPATPEIQEIVDKVKPQLEEKTGETYGKLEAVQYKTQVVYRFGPPYVKGTNYYIKVRAGDNKYMHLKVFKSLGWNAFSSPAEDLVLTGYQVDKNKDDELTGF
notes: His-tagged
B4: Clone 154 (designed binder)
chain: B3 chain with Y49P, R50Q, F51I, P53A, A85S, F86N, S87I, S88G, P89V, A90L
notes: His-tagged
B5: Clone 161 (designed binder)
chain: MIPGGLSEAKPATPEIQEIVDKVKPQLEEKTGETYGKLEAVQYKTQVVVLERPPYVKGTNYYIKVRAGDNKYMHLKVFKSLNWEGEPSGVEDLVLTGYQVDKNKDDELTGF
notes: His-tagged
B6: Clone 219 (designed binder)
chain: MIPGGLSEAKPATPEIQEIVDKVKPQLEEKTGETYGKLEAVQYKTQVVPLTIPPFVEGTNYYIKVRAGDNKYMHLKVFKSLGWQQVNDVKEDLVLTGYQVDKNKDDELTGF
notes: His-tagged
B7: Clone 240 (designed binder)
chain: MIPGGLSEAKPATPEIQEIVDKVKPQLEEKTGETYGKLEAVQYKTQVVLLYQAPFVQGTNYYIKVRAGDNKYMHLKVFKSLGWDLEYSQKEDLVLTGYQVDKNKDDELTGF
notes: His-tagged
B8: Clone 120 (designed binder)
chain: MIPGGLSEAKPATPEIQEIVDKVKPQLEEKTGETYGKLEAVQYKTQVDPEVSITRWQGTNYYIKVRAGDNKYMHLKVFKSLYETHGNIITEDLVLTGYQVDKNKDDELTGF
notes: His-tagged
B9: Clone 121 (designed binder)
chain: MIPGGLSEAKPATPEIQEIVDKVKPQLEEKTGETYGKLEAVQYKTQVDGNFAHERWQGTNYYIKVRAGDNKYMHLKVFKSLYIARDFDWTEDLVLTGYQVDKNKDDELTGF
notes: His-tagged
B10: Clone 123 (designed binder)
chain: MIPGGLSEAKPATPEIQEIVDKVKPQLEEKTGETYGKLEAVQYKTQVDNLVYYQRDWGTNYYIKVRAGDNKYMHLKVFKSLEPGRWRWPKEDLVLTGYQVDKNKDDELTGF
notes: His-tagged
B11: Clone 124 (designed binder)
chain: MIPGGLSEAKPATPEIQEIVDKVKPQLEEKTGETYGKLEAVQYKTQVDQVLWEIFEHGTNYYIKVRAGDNKYMHLKVFKSLFHQWSPALHEDLVLTGYQVDKNKDDELTGF
notes: His-tagged
B12: Clone 125 (designed binder)
chain: MIPGGLSEAKPATPEIQEIVDKVKPQLEEKTGETYGKLEAVQYKTQVVTRLHFPQYQGTNYYIKVRAGDNKYMHLKVFKSLEIEVNPYANEDLVLTGYQVDKNKDDELTGF
notes: His-tagged
B13: Clone 126 (designed binder)
chain: MIPGGLSEAKPATPEIQEIVDKVKPQLEEKTGETYGKLEAVQYKTQVVYEPHHPYPWGTNYYIKVRAGDNKYMHLKVFKSLQYHPPYERFEDLVLTGYQVDKNKDDELTGF
notes: His-tagged
B14: Clone 127 (designed binder)
chain: MIPGGLSEAKPATPEIQEIVDKVKPQLEEKTGETYGKLEAVQYKTQVVTQAIPWREWGTNYYIKVRAGDNKYMHLKVFKSLIPEWPKDASEDLVLTGYQVDKNKDDELTGF
notes: His-tagged
B15: Clone 128 (designed binder)
chain: MIPGGLSEAKPATPEIQEIVDKVKPQLEEKTGETYGKLEAVQYKTQVVPEVDKAEWWGTNYYIKVRAGDNKYMHLKVFKSLIRYGLRHEREDLVLTGYQVDKNKDDELTGF
notes: His-tagged
B16: Clone 13 (designed binder)
chain: MIPGGLSEAKPATPEIQEIVDKVKPQLEEKTGETYGKLEAVQYKTQVVLFREEKYNYGTNYYIKVRAGDNKYMHLKVFKSLAWGEVVSNAEDLVLTGYQVDKNKDDELTGF
notes: His-tagged
B17: Clone 130 (designed binder)
chain: MIPGGLSEAKPATPEIQEIVDKVKPQLEEKTGETYGKLEAVQYKTQVVPQPEWNEWGVTNYYIKVRAGDNKYMHLKVFKSLIFWNEKLIREDLVLTGYQVDKNKDDELTGF
notes: His-tagged
B18: Clone 131 (designed binder)
chain: MIPGGLSEAKPATPEIQEIVDKVKPQLEEKTGETYGKLEAVQYKTQVVNQWEWPVDLGTNYYIKVRAGDNKYMHLKVFKSLKVYRTHHIFEDLVLTGYQVDKNKDDELTGF
notes: His-tagged
B19: Clone 132 (designed binder)
chain: MIPGGLSEAKPATPEIQEIVDKVKPQLEEKTGETYGKLEAVQYKTQVVERYHFPQFTGTNYYIKVRAGDNKYMHLKVFKSLNHDQVRWNLEDLVLTGYQVDKNKDDELTGF
notes: His-tagged
B20: Clone 133 (designed binder)
chain: MIPGGLSEAKPATPEIQEIVDKVKPQLEEKTGETYGKLEAVQYKTQVVLYSESRDYKGTNYYIKVRAGDNKYMHLKVFKSLHAYKGSIYREDLVLTGYQVDKNKDDELTGF
notes: His-tagged
B21: Clone 134 (designed binder)
chain: MIPGGLSEAKPATPEIQEIVDKVKPQLEEKTGETYGKLEAVQYKTQVVFWFEDIQWLGTNYYIKVRAGDNKYMHLKVFKSLRFREDVDIREDLVLTGYQVDKNKDDELTGF
notes: His-tagged
B22: Clone 29 (designed binder)
chain: MIPGGLSEAKPATPEIQEIVDKVKPQLEEKTGETYGKLEAVQYKTQVVFTFVDIHWYGTNYYIKVRAGDNKYMHLKVFKSLRKPKDRQYTEDLVLTGYQVDKNKDDELTGF
notes: His-tagged
B23: Clone 162 (designed binder)
chain: MIPGGLSEAKPATPEIQEIVDKVKPQLEEKTGETYGKLEAVQYKTQVVFTFSSIGWWGTNYYIKVRAGDNKYMHLKVFKSLRQLLDKPRYEDLVLTGYQVDKNKDDELTGF
notes: His-tagged
B24: Clone 176 (designed binder)
chain: MIPGGLSEAKPATPEIQEIVDKVKPQLEEKTGETYGKLEAVQYKTQVVFWYPEIGWLGTNYYIKVRAGDNKYMHLKVFKSLRSRYPNYTAEDLVLTGYQVDKNKDDELTGF
notes: His-tagged
B25: Clone 135 (designed binder)
chain: MIPGGLSEAKPATPEIQEIVDKVKPQLEEKTGETYGKLEAVQYKTQVVAVYPTFKYGTNYYIKVRAGDNKYMHLKVFKSLKVEYLDFITEDLVLTGYQVDKNKDDELTGF
notes: His-tagged
B26: Clone 136 (designed binder)
chain: MIPGGLSEAKPATPEIQEIVDKVKPQLEEKTGETYGKLEAVQYKTQVVVLRWQWGYLGTNYYIKVRAGDNKYMHLKVFKSLQLLYEDNDEDLVLTGYQVDKNKDDELTGF
notes: His-tagged
B27: Clone 137 (designed binder)
chain: MIPGGLSEAKPATPEIQEIVDKVKPQLEEKTGETYGKLEAVQYKTQVVLWPLQPKNWGTNYYIKVRAGDNKYMHLKVFKSLGWNYLEAIAEDLVLTGYQVDKNKDDELTGF
notes: His-tagged
B28: Clone 138 (designed binder)
chain: MIPGGLSEAKPATPEIQEIVDKVKPQLEEKTGETYGKLEAVQYKTQVVDNVRHGWLSGTNYYIKVRAGDNKYMHLKVFKSLFALLWSAYGEDLVLTGYQVDKNKDDELTGF
notes: His-tagged
B29: Clone 139 (designed binder)
chain: MIPGGLSEAKPATPEIQEIVDKVKPQLEEKTGETYGKLEAVQYKTQVVGLIQPPYAQGTNYYIKVRAGDNKYMHLKVFKSLGWQYIDLFHEDLVLTGYQVDKNKDDELTGF
notes: His-tagged
B30: Clone 14 (designed binder)
chain: MIPGGLSEAKPATPEIQEIVDKVKPQLEEKTGETYGKLEAVQYKTQVVSFLVDPLHLGTNYYIKVRAGDNKYMHLKVFKSLRSFGGEWGWEDLVLTGYQVDKNKDDELTGF
notes: His-tagged
B31: Clone 140 (designed binder)
chain: MIPGGLSEAKPATPEIQEIVDKVKPQLEEKTGETYGKLEAVQYKTQVVRQVGVWAYEGTNYYIKVRAGDNKYMHLKVFKSLGRTVEGGRWEDLVLTGYQVDKNKDDELTGF
notes: His-tagged
B32: Clone 174 (designed binder)
chain: B31 chain with G52T, V53I, A55H, Y56F, V85E, E86V, G87E, R89S, W90F
notes: His-tagged
B33: Clone 141 (designed binder)
chain: MIPGGLSEAKPATPEIQEIVDKVKPQLEEKTGETYGKLEAVQYKTQVVDLHTLKSGVGTNYYIKVRAGDNKYMHLKVFKSLYIKHHLWWIEDLVLTGYQVDKNKDDELTGF
notes: His-tagged
B34: Clone 142 (designed binder)
chain: MIPGGLSEAKPATPEIQEIVDKVKPQLEEKTGETYGKLEAVQYKTQVVSWYKLWSYSGTNYYIKVRAGDNKYMHLKVFKSLFEGRHKDPEEDLVLTGYQVDKNKDDELTGF
notes: His-tagged
B35: Clone 143 (designed binder)
chain: MIPGGLSEAKPATPEIQEIVDKVKPQLEEKTGETYGKLEAVQYKTQVVDWPSHAKFWGTNYYIKVRAGDNKYMHLKVFKSLFLPDKDDPFEDLVLTGYQVDKNKDDELTGF
notes: His-tagged
B36: Clone 144 (designed binder)
chain: MIPGGLSEAKPATPEIQEIVDKVKPQLEEKTGETYGKLEAVQYKTQVVAYQSPPYHFGTNYYIKVRAGDNKYMHLKVFKSLRQIAGYIAIEDLVLTGYQVDKNKDDELTGF
notes: His-tagged

The binders below were run against T1, human PD-L1-Fc (R&D Systems) (human, UniProt Q9NZQ7 19-239) (assay: soluble Affimer ELISA).
T1 construct: Bought from R&D Systems; Biotinylated in-house for the phage selection; also called huPD-L1-Fc; human PD-L1-Fc antigen; not shown: Fc part of the bought fusion
T1 sequence (Q9NZQ7 19-239 limits assumed): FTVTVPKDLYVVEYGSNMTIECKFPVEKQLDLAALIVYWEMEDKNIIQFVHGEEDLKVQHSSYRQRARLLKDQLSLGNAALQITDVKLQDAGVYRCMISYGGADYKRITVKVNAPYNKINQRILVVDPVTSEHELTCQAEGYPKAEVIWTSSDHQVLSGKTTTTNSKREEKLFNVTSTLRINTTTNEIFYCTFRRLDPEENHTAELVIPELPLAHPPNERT
B1: binds.
B2: binds.
B3: binds.
B4: binds.
B5: binds.
B6: binds.
B7: binds.
B8: binds.
B9: binds.
B10: binds.
B11: binds.
B12: binds.
B13: binds.
B14: binds.
B15: binds.
B16: binds.
B17: binds.
B18: binds.
B19: binds.
B20: binds.
B21: binds.
B22: binds.
B23: binds.
B24: binds.
B25: binds.
B26: binds.
B27: binds.
B28: binds.
B29: binds.
B30: binds.
B31: binds.
B32: binds.
B33: binds.
B34: binds.
B35: binds.
B36: binds.
